# B1: Oct probe (dsDNA)
# DNA 1: CAGTGATGCAAATCTTGT
# DNA 2: ACAAGATTTGCATCACTG
# Biological target: Oct-2 Q221A (UniProt P09086 1-479, Q221A)
# Experiment: EMSA; EMSA with in vitro-translated protein and 32P-labelled annealed ds oligonucleotide; buffer, salt, pH and temperature not given in the material
# Settings: protein: ivt; label: 32P (T4 PNK, 5' end); blunt
# Oct-2 Q221A, sequence (P09086 whole entry Q221A): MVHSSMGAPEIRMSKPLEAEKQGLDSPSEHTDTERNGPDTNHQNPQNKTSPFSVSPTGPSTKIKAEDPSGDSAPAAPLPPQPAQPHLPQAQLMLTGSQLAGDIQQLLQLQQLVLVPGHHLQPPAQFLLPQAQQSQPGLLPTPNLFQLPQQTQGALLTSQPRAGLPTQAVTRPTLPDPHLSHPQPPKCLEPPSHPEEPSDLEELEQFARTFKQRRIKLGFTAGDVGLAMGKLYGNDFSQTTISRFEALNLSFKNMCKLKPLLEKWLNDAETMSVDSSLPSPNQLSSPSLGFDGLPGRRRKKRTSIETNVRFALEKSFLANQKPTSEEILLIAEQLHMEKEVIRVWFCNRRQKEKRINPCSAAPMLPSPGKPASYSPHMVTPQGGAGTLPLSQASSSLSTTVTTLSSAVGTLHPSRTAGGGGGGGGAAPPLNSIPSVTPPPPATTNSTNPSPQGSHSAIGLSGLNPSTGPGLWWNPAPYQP
binder,measurement,value
B1,binding result,no binding
